{"source": "patent US20240287161A1", "about": "(NATIONAL UNIVERSITY CORPORATION TOTTORI UNIVERSITY, published 2024)", "binders": {"B1": {"name": "NT-193 (recombinant human IgG1/kappa antibody) (antibody, V domains shown)", "VH": "EVQLQQWGAGLLKPSETLSLTCAVYGGSFSGYYWSWIRQPPGKGLEWIGEINHSGSTNYNPSLKSRVTISVDTSKNQFSLKLSSVTAADTAVYYCARGWDLDYYYGMDVWGQGTTVTVSS", "VL": "DIRMTQSPSAMSASVGDRVTVTCRASQGIGNYLAWFQLKPGKVPKRLIYAASSLQSGVPARFSGGGSGTEFTLTISSLQPEDFATYYCLQHGFLPWTFGQGTKLEIK"}}, "key": {"[1]": {"molecular_target": "T1, HCoV-NL63 trimeric S protein (amino acids 22-1293) with T4 foldon, histidine tag and strep-tag (HCoV-NL63, UniProt Q6Q1S2 23-1293)", "T1 sequence": "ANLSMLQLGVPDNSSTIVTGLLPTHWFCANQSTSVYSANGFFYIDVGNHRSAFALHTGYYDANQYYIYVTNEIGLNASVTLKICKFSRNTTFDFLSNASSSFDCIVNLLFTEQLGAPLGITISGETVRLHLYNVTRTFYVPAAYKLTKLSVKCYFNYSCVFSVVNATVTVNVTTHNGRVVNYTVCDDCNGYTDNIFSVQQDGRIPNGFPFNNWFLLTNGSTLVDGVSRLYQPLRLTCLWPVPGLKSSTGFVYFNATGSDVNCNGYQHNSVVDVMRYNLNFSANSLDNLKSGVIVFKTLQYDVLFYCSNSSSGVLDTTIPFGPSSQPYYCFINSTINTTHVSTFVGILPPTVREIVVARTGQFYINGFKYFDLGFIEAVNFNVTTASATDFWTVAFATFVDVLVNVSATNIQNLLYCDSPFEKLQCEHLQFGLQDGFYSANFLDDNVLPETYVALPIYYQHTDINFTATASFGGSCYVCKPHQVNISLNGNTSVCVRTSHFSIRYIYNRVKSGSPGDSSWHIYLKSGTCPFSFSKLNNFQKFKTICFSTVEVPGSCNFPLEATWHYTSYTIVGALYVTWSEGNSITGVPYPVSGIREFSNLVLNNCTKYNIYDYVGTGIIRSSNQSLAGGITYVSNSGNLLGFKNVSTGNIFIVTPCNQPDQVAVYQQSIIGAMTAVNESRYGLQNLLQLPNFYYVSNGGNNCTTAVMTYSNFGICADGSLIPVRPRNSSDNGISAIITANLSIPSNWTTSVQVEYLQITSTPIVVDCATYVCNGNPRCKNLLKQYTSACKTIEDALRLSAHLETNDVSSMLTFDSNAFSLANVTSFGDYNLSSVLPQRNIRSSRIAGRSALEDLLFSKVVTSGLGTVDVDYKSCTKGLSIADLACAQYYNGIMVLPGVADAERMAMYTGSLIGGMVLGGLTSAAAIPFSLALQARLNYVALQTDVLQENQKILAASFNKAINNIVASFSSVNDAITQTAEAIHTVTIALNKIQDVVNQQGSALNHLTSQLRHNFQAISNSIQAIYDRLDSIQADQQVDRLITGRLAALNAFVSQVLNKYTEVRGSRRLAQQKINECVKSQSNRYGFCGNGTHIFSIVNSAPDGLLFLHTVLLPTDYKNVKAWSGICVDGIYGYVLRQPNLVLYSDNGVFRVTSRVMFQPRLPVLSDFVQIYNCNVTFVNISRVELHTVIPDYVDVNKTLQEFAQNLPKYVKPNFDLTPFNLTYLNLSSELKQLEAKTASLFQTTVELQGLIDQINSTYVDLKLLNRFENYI", "experiment": "ELISA on coated S-trimeric antigen, anti-human IgG-HRP [Human IgG1, NT-193]"}, "[2]": {"molecular_target": "T2, HCoV-229E trimeric S protein (amino acids 12-1109) with T4 foldon, histidine tag and strep-tag (HCoV-229E, UniProt P15423 12-1112)", "T2 chain": "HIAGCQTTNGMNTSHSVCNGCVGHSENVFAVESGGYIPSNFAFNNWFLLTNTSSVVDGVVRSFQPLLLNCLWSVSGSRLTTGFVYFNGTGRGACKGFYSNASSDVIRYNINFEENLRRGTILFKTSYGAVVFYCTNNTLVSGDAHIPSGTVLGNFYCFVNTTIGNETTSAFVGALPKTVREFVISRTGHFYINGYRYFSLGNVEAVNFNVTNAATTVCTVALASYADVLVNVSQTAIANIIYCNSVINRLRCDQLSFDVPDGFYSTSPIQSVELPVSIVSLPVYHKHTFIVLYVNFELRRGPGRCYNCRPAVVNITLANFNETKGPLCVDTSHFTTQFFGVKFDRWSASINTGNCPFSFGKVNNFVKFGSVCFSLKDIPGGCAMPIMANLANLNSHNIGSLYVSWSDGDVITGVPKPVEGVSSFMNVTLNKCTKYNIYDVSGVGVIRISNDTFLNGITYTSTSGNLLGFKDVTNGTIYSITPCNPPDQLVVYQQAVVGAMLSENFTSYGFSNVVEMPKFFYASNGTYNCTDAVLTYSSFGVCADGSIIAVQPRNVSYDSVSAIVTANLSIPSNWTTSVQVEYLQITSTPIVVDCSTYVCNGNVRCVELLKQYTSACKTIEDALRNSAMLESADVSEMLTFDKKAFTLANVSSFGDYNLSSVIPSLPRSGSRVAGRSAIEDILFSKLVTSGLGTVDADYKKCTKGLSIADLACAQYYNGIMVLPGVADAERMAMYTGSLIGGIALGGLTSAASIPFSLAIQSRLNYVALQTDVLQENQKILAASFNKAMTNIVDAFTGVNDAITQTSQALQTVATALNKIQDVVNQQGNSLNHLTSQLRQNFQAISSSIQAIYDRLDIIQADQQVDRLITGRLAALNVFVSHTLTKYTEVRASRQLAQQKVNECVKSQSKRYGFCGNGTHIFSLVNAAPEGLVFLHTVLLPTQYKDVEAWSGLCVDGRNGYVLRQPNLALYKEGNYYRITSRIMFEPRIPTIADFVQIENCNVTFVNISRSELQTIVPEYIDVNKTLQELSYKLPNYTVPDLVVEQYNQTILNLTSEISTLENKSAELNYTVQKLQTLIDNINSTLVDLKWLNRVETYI", "experiment": "ELISA on coated S-trimeric antigen, anti-human IgG-HRP [Human IgG1, NT-193]"}}}
{"binder": "B1", "values": [{"measurement": "binding result", "setting": "[1]", "value": "no binding (tested: 1000 ng/ml)"}, {"measurement": "binding result", "setting": "[2]", "value": "no binding (tested: 1000 ng/ml)"}]}
